Measurements: paper PMC9600267, “The Antibacterial Type VII Secretion System of Bacillus subtilis: Structure and Interactions of the Pseudokinase YukC/EssB” (mBio, 2022)

Molecular target: the molecule itself
Test: crystal structure; hanging-drop vapor diffusion at 4°C; 20 mg/mL YukC413 in 25 mM HEPES pH 8, 175 mM NaCl, 0.04% Cymal-6 with 0.1 M MgCl2, 50 mM HEPES pH 7.5, 15% PEG 2000; molecular replacement

B1: YukC413 (YukC lacking the last 38 residues), Strep-tagged (pRSF/yukC413.strep) (domain or fragment, Bacillus subtilis 168, UniProt P71070 1-413, looked up)
chain: MSGEQKSYLENQLEAVAEKTDAGYTFTFQREKIKLLDGLEANVIKDINPFFHKEIDVTDDEVIITIQPPSSYKAFRFMKAKDKKSKWQFAYQLVQAVQQHNLSRLNLIVAPENIVFDKGLTPYFLHYGVKESIPPYERDEERVWQELKAAAALAVDGAFAFEDYLKFNETLTFSAEAKAILDAESYDDLLELIQTHIDELEAKAKTYIHIPRKKWNIQRYIGLGLIVLLVPALIYSMYALFFAQPKHQAIVDSNRAFLNKQYSEVISTLSKYDAESLPESVQYQLATSYVEVENLGSAKTKNIENNLVTLQSDPQHFLYWIDYGRGEYKEAISIGRKLEYNDYIYFALAKYKQQLLSEDTNDEDIQKELDSVNSELEKAQKERQENKQSNSETSLVDTSEEQTQTDEEKQAEE
notes: YukC (EssB) of Bacillus subtilis 168 lacking the last 38 residues at the C terminus; In the model 384 (chain A) and 377 (chain B) residues are assigned; source: E. coli BL21(DE3); purified from Cymal-6-solubilized membranes (StrepTrap, Superdex 200) for crystallization; coexpressed with YukE.his and solubilized with Triton X-100 for copurification
binding result: binds
